Measurements published in US20240059797A1 (GRITSTONE BIO, published 2024).
Substitutions are numbered along the chain they refer to.

B1: G8(2E06) scFv (scFv, V domains shown)
VH: QVQLVQSGAEVKKPGASVKVSCKASGYTLTTYYMHWVRQAPGQGLEWMGWINPNSGGTNYAQKFQGRVTMTRDTSTSTVYMELSSLRSEDTAVYYCARAVYYDFWSGPFDYWGQGTLVTVSS
VL: DIQMTQSPSSLSASVGDRVTITCRASQGISNSLAWYQQKPGKAPKLLIYAASSLQSGVPSRFSGSGSGTDFTLTISSLQPEDFATYYCQQANSFPWTFGQGTKLEIK
B2: G8(2B05) scFv (scFv, V domains shown)
VH: EVQLLESGGGLVQPGGSLRLSCAASGFDFSIYSMNWVRQAPGKGLEWVSAISGSGGSTYYADSVKGRFTISRDNSKNTLYLQMNSLRAEDTAVYYCASNGNYYGSGSYYNYWGQGTLVTVSS
VL: B1 VL with G28S, N31R, S32W, A91Y, N92S, S93T, F94Y, W96I, F98I, L104V
B3: G8(1A06) scFv (scFv, V domains shown)
VH: QVQLVQSGAEVKKPGASVKVSCKASGYTFTNYYMHWVRQAPGQGLEWMGWMNPIGGGTGYAQKFQGRVTMTRDTSTSTVYMELSSLRSEDTAVYYCARVYDFWSVLSGFDIWGQGTLVTVSS
VL: B1 VL with G28A, S53T, Q89G, A91S, N92Y, F94T, W96P
B4: G8(1A04) scFv (scFv, V domains shown)
VH: QVQLVQSGAEVKKPGASVKVSCKASGYPFIGQYLHWVRQAPGQGLEWMGIINPSGDSATYAQKFQGRVTMTRDTSTSTVYMELSSLRSEDTAVYYCARDLSYYYGMDVWGQGTTVTVSS
VL: B1 VL with R24W, N31S, S32Y, A91S, N92Y, S93N, F94T, Q100P, L104V, E105D
B5: G8(1B03) scFv (scFv, V domains shown)
VH: EVQLLESGGGLVQPGGSLRLSCAASGFTFSDYYMSWVRQAPGKGLEWVSGINWNGGSTGYADSVKGRFTISRDNSKNTLYLQMNSLRAEDTAVYYCARVEQGYDIYYYYYMDVWGKGTTVTVSS
VL: DIQMTQSPSSLSASVGDRVTITCRASQSISSYLNWYQQKPGKAPKLLIYKASSLESGVPSRFSGSGSGTDFTLTISSLQPEDFATYYCQQSYSAPYTFGPGTKVDIK
B6: G8(1C11) scFv (scFv, V domains shown)
VH: QVQLVQSGAEVKKPGASVKVSCKASGGTLSSYPINWVRQAPGQGLEWMGWISTYSGHADYAQKLQGRVTMTRDTSTSTVYMELSSLRSEDTAVYYCARSYDYGDYLNFDYWGQGTLVTVSS
VL: B5 VL with R24Q, S28D, S31N, K50A, E55Q, A94I, Y96P, P100G
B7: G8(1D02) scFv (scFv, V domains shown)
VH: EVQLLESGGGLVQPGGSLRLSCAASGFTFSSYWMSWVRQAPGKGLEWVSSISGRGDNTYYADSVKGRFTISRDNSKNTLYLQMNSLRAEDTAVYYCARASGSGYYYYYGMDVWGQGTTVTVSS
VL: B5 VL with R24Q, S28D, S31N, K50A, E55Q, P100G, D105E
B8: G8(2C10) scFv (scFv, V domains shown)
VH: QVQLVQSGAEVKKPGASVKVSCKASGYTFTSYYMHWVRQAPGQGLEWMGWINPYSGGTNYAQKFQGRVTMTRDTSTSTVYMELSSLRSEDTAVYYCAKGGIYYGSGSYPSWGQGTLVTVSS
VL: B1 VL with G28D, I29V, N31T, S32W, A91S, N92H, F94T, W96Q, L104V
B9: G8(1H08) scFv (scFv, V domains shown)
VH: QVQLVQSGAEVKKPGASVKVSCKASGYTFGNYFMHWVRQAPGQGLEWMGMVNPSGGSETFAQKFQGRVTMTRDTSTSTVYMELSSLRSEDTAVYYCAASTWIQPFDYWGQGTLVTVSS
VL: B1 VL with S30N, N31S, S32Y, A50D, S53N, Q55E, S56T, A91H, F94Y, W96P
notes: also called G8-P1H08
B10: G8(1A03) scFv (scFv, V domains shown)
VH: QVQLVQSGAEVKKPGASVKVSCKASGGTFSRSAITWVRQAPGQGLEWMGWINPNSGATNYAQKFQGRVTMTRDTSTSTVYMELSSLRSEDTAVYYCARDDYGDYVAYFQHWGQGTLVTVSS
VL: DIQMTQSPSSLSASVGDRVTITCRASQSITSYLNWYQQKPGKAPKLLIYDASNLETGVPSRFSGSGSGTDFTLTISSLQPEDFATYYCQQNYNSVTFGQGTKLEIK
B11: G2(1B06) Fab (Fab, V domains shown)
VH: QVQLVQSGAEVKKPGASVKVSCKASGGTFSNYILSWVRQAPGQGLEWMGWINPDSGGTNYAQKFQGRVTMTRDTSTSTVYMELSSLRSEDTAVYYCARGSYGMDVWGQGTTVTVSS
VL: B1 VL with G28S, N31R, S32W, A91S, N92Y, F94T, W96Y
notes: Fab
B12: G2(2A11) Fab (Fab, V domains shown)
VH: EVQLLESGAEVKKPGASVKVSCKASGYTFTTYDLAWVRQAPGQGLEWMGWINPNSGGTNYAQKFQGRVTMTRDTSTSTVYMELSSLRSEDTAVYYCARANWLDYWGQGTLVTVSS
VL: B1 VL with G28D, N31R, S32W, S53R, S56A, A91S, N92Y, F94T, W96Y, T97S
notes: Fab
B13: G2(1B12) Fab (Fab, V domains shown)
VH: QVQLVQSGAEVKKPGASVKVSCKASGYTFTSYGITWVRQAPGQGLEWMGWINPNSGGTNYAQKFQGRVTMTRDTSTSTVYMELSSLRSEDTAVYYCARDYGDLDYWGQGTLVTVSS
VL: B1 VL with G28N, S30G, S32W, S53T, S56T, A91S, N92Y, F94A, W96Y, T97S
notes: Fab
B14: G2(1H01) Fab (Fab, V domains shown)
VH: B13 VH with S31R, G33T, T35N, Y100F, G101V, D102G, L103Y, Y105D
VL: B5 VL with I29V, S30G, S31N, Y32W, N34A, K50G, E55Q, S56T, P100Q, D105E
notes: Fab
B15: G2(2A03) Fab (Fab, V domains shown)
VH: QVQLVQSGAEVKKPGASVKVSCKASGYTFTSYTVNWVRQAPGQGLEWMGWINPNSGGTKYAQNFQGRVTMTRDTSTSTVYMELSSLRSEDTAVYYCARGGGGALDYWGQGTLVTVSS
VL: B1 VL with G28S, N31S, S32W, S53T, A91S, N92Y, S93L, F94P, W96Y, T97S
notes: Fab
B16: G2(1H11) Fab (Fab, V domains shown)
VH: QVQLVQSGAEVKKPGASVKVSCKASGYTFTNYYMHWVRQAPGQGLEWMGMINPSGGGTSYAQKFQGRVTMTRDTSTSTVYMELSSLRSEDTAVYYCARGNPWELRLDYWGQGTLVTVSS
VL: B5 VL with R24Q, S28D, S31N, K50A, E55Q, S91Y, A94Y, Y96F
notes: Fab
B17: G2(1C06) scFv (scFv, V domains shown)
VH: QVQLVQSGAEVKKPGASVKVSCKASGYTFTDYQMFWVRQAPGQGLEWMGWINPNSGGTNYAQKFQGRVTMTRDTSTSTVYMELSSLRSEDTAVYYCAKGGGGYGMDVWGQGTTVTVSS
VL: B1 VL with S32Y, A91S, N92Y, F94D, P95Q, L104V
B18: G2(1E03) scFv (scFv, V domains shown)
VH: QVQLVQSGAEVKKPGASVKVSCKASGYTFTGYYMHWVRQAPGQGLEWMGWMNPNSGNTGYAQKFQGRVTMTRDTSTSTVYMELSSLRSEDTAVYYCATYDDGMDVWGQGTTVTVSS
VL: B1 VL with G28S, N31H, S32Y, A34N, A50G, A91S, N92Y, S93T, F94T, K103R
B19: G2(2D04) scFv (scFv, V domains shown)
VH: QVQLVQSGAEVKKPGASVKVSCKASGYTFSNFLINWVRQAPGQGLEWMGWINPNSGGTNYAQKFQGRVTMTRDTSTSTVYMELSSLRSEDTAVYYCASERELPFDIWGQGTMVTVSS
VL: B5 VL with Y32W, L33V, N34A, K50G, S53N, A94T, T97S, P100Q, V104L, D105E
B20: G2(1B08) scFv (scFv, V domains shown)
VH: QVQLVQSGAEVKKPGASVKVSCKASGYTFTNYHMHWVRQAPGQGLEWMGWIHPDSGGTSYAQKFQGRVTMTRDTSTSTVYMELSSLRSEDTAVYYCARNWNLDYWGQGTLVTVSS
VL: B1 VL with G28S, S32W, D70Y, A91S, N92Y, F94S, W96Y
B21: G2(2A09) scFv (scFv, V domains shown)
VH: QVQLVQSGAEVKKPGASVKVSCKASGGTFSSYAISWVRQAPGQGLEWMGWINPNSGGTNYAQKFQGRVTMTRDTSTSTVYMELSSLRSEDTAVYYCAAMGIAVAGGMDVWGQGTLVTVSS
VL: B1 VL with G28S, N31R, S32W, A91S, N92Y, S93L, F94P, W96Y, T97S, L104V
B22: G2(2F01) scFv (scFv, V domains shown)
VH: QVQLVQSGAEVKKPGASVKVSCKASGYTFTSYYMHWVRQAPGQGLEWMGMINPRDDTTDYARDFQGRVTMTRDTSTSTVYMELSSLRSEDTAVYYCALSGNYYGMDVWGQGTTVTVSS
VL: DIQMTQSPSSLSASVGDRVTITCQASQDISNYLNWYQQKPGKAPKLLIYGASRLQSGVPSRFSGSGSGTDFTLTISSLQPEDFATYYCQEGITYTFGQGTKVEIK
B23: G2(1D06) scFv (scFv, V domains shown)
VH: QVQLVQSGAEVKKPGSSVKVSCKASGYTFTSQYMHWVRQAPGQGLEWMGRIIPLLGIVNYAQKFQGRVTITADESTSTAYMELSSLRSEDTAVYYCARDKNYYGMDVWGQGTTVTVSS
VL: EIVMTQSPATLSVSPGERATLSCRASQSVSRNLAWYQQKPGQAPRLLIYGASTRATGIPARFSGSGSGTEFTLTISSLQSEDFAVYYCQHYGYSPVTFGQGTKLEIK

Target: HLA-A*02:01_… (HLA-PEPTIDE target G8), recombinant complex (human, enzymatically biotinylated (BirA) for screening and functional assays)
Assay: scFv PPE ELISA

Row | fold selective binding to target pHLA over minipool of negative control pHLAs [fold] | Binder
1 | ≥ 3 | B1
2 | ≥ 3 | B2
3 | ≥ 3 | B3
4 | ≥ 3 | B4
5 | ≥ 3 | B5
6 | ≥ 3 | B6
7 | ≥ 3 | B7
8 | ≥ 3 | B8
9 | ≥ 3 | B9
10 | ≥ 3 | B10

Target: T1, HLA-A*01:01_… (HLA-PEPTIDE target G2), recombinant biotinylated complex (human, enzymatically biotinylated (BirA))
T1 construct: also called G2-pHLA
Assay: BLI, pHLA on sensor, Fab titrated, 1:1 model

Row | Kd [nM] | koff [s⁻¹] | kon [M⁻¹ s⁻¹] | Binder
11 | 44.4 | 0.0323 | 1.06e+06 | B11
12 | 28.1 | 0.0172 | 633000 | B12
13 | 22.8 | 0.00728 | 366000 | B13
14 | 15.5 | 0.0148 | 952000 | B14
15 | 109 | 0.036 | 332000 | B15
16 | 49.9 | 0.028 | 581000 | B16

Target: T1, HLA-A*01:01_… (HLA-PEPTIDE target G2), …
Assay: phage panning, scFv ELISA;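 also: scFv binders from three to four bead panning rounds, tested as PPEs by ELISA on streptavidin plates carrying peptide-HLA complex (2 µg/ml), detected via anti-V5 and HRP anti-mouse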
Experimental: Phage library screening was carried out according to the overall screening design described above. Three to four rounds of bead-based panning were performed to identify scFv binders to each peptide-HLA complex. For each round of panning, an aliquot of starting phage was set aside for input titering and the remaining phage was depleted three times against Dynabead M-280 streptavidin beads (Life Technologies) followed by a depletion against Streptavidin beads pre-bound with 100 μmoles of pooled negative peptide-HLA complexes. For the first round of panning, 100 μmoles of peptide-HLA complex bound to streptavidin beads was incubated with depleted phage for 2 hours at room temperature with rotation. Three five-minute washes with 0.5% BSA in 1×PBST (PBS+0.05% Tween-20) followed by three five-minute washes with 0.5% BSA in 1×PBS were utilized to remove any unbound phage to the peptide-HLA complex bound beads. To elute the bound phage from the washed beads, 1 ml 0.1M TEA was added and incubated for 10 minutes at room temperature with rotation. The eluted phage was collected from the beads and neutralized with 0.5 ml 1M Tris-HCl pH 7.5. The neutralized phage was then used to infect log growth TG-1 cells (OD₆₀₀=0.5) and after an hour of infection at 37° C., cells were plated onto 2YT media with 100 μg/ml carbenicillin and 2% glucose (2YTCG) agar plates for output titer and bacterial growth for subsequent panning rounds.
96-well and/or 384-well streptavidin coated plates (Pierce) were coated with 2 μg/ml peptide-HLA complex in HLA buffer and incubated overnight at 4° C. Plates were washed three times between each step with PBST (PBS+0.05%). The antigen coated plates were blocked with 3% BSA in PBS (blocking buffer) for 1 hour at room temperature. After washing, scFv PPEs were added to the plates and incubated at room temperature for 1 hour. Following washing, mouse anti-v5 antibody (Invitrogen) in blocking buffer was added to detect scFv and incubated at room temperature for 1 hour. After washing, HRP-goat anti-mouse antibody (Jackson ImmunoResearch) was added and incubated at room temperature for 1 hour.

Row | binding result | Binder
17 | binds | B17
18 | binds | B18
19 | binds | B19
20 | binds | B20
21 | binds | B21
22 | binds | B22
23 | binds | B23
